Assay results reported in paper PMC11096021.

Tests used:
[1] = molecular target: A/Michigan/45/2015 H1 trimer (for structural studies) (influenza A virus A/Michigan/45/2015 (H1)); assay: cryo-EM structure
[2] = molecular target: A/Perth/16/2009 H3 trimer (for structural studies) (influenza A virus A/Perth/16/2009 (H3N2)); assay: cryo-EM structure
[3] = molecular target: A/Perth/16/2009 H3 trimer (for structural studies) (influenza A virus A/Perth/16/2009 (H3N2)); assay: crystal structure

Substance: A/Michigan/45/2015 H1 trimer (for structural studies) (natural protein)
- stoichiometry N [1]: 3

Substance: A/Perth/16/2009 H3 trimer (for structural studies) (natural protein)
- stoichiometry N [2]: 3
- stoichiometry N [3]: 3
